From article PMC2213055 (The Journal of Experimental Medicine, 2005) come the findings set out here.

One test has as its target MSH2–MSH6 heterodimer (human, UniProt P43246 1-934; P52701 1-1360). As to the kind of experiment: ELISA. A general note: ELISA stands for enzyme-linked immunosorbent assay.
The target of another test is MSH2–MSH3 heterodimer (human, UniProt P43246 1-934; P20585 1-1137). The test can be described thus: ELISA.
MSH2–MSH3 heterodimer, sequence (P43246 whole entry, chain 1 of 2): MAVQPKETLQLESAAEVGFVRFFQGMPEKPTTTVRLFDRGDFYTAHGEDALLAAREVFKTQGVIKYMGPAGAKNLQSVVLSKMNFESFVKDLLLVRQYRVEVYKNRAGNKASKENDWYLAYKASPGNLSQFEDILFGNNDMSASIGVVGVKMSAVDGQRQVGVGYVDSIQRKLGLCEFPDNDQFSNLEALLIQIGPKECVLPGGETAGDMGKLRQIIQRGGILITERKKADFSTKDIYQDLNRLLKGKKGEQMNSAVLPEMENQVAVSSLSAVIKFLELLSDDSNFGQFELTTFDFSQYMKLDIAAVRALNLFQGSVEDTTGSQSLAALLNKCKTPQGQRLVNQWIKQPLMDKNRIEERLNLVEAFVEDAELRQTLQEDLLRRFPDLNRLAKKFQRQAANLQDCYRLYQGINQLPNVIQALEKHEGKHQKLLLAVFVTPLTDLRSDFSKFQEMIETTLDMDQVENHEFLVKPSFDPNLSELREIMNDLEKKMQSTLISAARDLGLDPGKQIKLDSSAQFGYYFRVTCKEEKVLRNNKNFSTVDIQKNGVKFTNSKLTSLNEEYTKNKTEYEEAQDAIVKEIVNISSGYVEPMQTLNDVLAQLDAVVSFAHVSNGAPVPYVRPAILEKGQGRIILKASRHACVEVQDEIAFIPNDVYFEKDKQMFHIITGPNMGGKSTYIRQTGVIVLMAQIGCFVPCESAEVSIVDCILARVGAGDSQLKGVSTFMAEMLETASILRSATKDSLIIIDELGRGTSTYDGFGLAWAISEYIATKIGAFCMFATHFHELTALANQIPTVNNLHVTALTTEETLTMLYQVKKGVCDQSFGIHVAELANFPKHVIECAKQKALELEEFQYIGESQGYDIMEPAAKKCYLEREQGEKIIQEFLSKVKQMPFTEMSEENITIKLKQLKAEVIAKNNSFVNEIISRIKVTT
MSH2–MSH3 heterodimer, sequence (P20585 whole entry, chain 2 of 2): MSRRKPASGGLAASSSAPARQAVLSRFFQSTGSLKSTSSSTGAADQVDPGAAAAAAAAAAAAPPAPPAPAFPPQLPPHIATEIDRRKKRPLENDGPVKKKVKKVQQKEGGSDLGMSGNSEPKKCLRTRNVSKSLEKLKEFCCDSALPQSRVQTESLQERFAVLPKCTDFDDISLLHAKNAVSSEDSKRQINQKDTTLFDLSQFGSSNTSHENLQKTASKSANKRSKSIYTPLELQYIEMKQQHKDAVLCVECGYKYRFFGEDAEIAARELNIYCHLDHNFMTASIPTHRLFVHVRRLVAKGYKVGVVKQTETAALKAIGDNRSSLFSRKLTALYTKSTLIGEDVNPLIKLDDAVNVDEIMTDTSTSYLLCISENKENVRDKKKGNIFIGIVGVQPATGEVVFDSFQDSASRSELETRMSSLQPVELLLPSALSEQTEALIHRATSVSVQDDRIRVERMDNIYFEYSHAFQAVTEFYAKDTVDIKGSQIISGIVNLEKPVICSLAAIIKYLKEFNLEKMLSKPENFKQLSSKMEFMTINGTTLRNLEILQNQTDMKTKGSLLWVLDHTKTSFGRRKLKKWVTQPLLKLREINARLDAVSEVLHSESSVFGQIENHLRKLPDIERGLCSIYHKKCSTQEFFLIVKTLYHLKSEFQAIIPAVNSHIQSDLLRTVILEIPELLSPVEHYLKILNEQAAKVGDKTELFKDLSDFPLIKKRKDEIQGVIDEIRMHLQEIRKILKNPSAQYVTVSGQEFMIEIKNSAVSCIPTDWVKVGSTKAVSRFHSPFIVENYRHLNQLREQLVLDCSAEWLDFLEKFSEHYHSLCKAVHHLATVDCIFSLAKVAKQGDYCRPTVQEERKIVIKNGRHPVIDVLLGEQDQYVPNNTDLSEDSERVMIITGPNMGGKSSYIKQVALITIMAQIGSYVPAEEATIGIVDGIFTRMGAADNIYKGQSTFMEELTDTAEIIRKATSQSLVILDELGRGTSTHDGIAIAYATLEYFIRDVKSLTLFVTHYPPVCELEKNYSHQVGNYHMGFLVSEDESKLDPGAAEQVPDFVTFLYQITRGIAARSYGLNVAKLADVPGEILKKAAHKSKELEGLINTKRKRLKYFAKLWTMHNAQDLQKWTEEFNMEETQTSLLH

MSH2–MSH6 heterodimer, sequence (P43246 whole entry, chain 1 of 2): as the sequence (P43246 whole entry, chain 1 of 2) above
MSH2–MSH6 heterodimer, sequence (P52701 whole entry, chain 2 of 2): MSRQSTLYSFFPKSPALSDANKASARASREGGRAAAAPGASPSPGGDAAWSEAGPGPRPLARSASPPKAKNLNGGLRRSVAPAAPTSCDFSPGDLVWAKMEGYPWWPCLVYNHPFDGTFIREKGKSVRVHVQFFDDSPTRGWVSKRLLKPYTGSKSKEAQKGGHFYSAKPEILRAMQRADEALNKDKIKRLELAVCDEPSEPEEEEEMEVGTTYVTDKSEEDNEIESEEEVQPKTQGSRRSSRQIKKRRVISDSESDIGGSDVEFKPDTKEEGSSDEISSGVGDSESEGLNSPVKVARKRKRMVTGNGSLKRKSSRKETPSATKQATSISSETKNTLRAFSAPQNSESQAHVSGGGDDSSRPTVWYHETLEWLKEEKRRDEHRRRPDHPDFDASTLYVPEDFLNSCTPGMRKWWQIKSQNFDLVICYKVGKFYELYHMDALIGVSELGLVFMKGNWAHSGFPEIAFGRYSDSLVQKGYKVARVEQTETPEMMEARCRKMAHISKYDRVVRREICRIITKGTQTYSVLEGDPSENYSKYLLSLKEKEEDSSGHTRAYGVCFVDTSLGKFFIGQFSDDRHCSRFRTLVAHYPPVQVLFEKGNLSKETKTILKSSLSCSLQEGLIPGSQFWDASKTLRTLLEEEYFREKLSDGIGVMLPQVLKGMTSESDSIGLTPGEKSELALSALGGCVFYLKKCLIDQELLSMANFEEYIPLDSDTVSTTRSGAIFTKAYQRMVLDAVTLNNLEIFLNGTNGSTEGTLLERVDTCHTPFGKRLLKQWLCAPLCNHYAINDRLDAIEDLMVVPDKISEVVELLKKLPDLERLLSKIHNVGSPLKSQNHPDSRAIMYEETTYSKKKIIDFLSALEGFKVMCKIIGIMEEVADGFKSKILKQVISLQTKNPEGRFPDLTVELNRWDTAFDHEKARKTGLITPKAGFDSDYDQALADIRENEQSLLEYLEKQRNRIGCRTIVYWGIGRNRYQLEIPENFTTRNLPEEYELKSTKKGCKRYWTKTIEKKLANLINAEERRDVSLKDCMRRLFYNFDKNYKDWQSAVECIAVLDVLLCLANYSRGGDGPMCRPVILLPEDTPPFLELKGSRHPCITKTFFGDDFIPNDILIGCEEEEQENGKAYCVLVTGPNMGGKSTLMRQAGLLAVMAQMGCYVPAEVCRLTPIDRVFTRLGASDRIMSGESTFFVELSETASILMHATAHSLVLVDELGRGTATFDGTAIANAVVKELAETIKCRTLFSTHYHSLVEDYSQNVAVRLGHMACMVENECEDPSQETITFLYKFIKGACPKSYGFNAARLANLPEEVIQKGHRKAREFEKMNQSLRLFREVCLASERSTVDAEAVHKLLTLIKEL

B1: recombinant human DNA polymerase η, (His)6-tagged (enzyme, UniProt Q9Y253 1-713, looked up)
chain: MATGQDRVVALVDMDCFFVQVEQRQNPHLRNKPCAVVQYKSWKGGGIIAVSYEARAFGVTRSMWADDAKKLCPDLLLAQVRESRGKANLTKYREASVEVMEIMSRFAVIERASIDEAYVDLTSAVQERLQKLQGQPISADLLPSTYIEGLPQGPTTAEETVQKEGMRKQGLFQWLDSLQIDNLTSPDLQLTVGAVIVEEMRAAIERETGFQCSAGISHNKVLAKLACGLNKPNRQTLVSHGSVPQLFSQMPIRKIRSLGGKLGASVIEILGIEYMGELTQFTESQLQSHFGEKNGSWLYAMCRGIEHDPVKPRQLPKTIGCSKNFPGKTALATREQVQWWLLQLAQELEERLTKDRNDNDRVATQLVVSIRVQGDKRLSSLRRCCALTRYDAHKMSHDAFTVIKNCNTSGIQTEWSPPLTMLFLCATKFSASAPSSSTDITSFLSSDPSSLPKVPVTSSEAKTQGSGPAVTATKKATTSLESFFQKAAERQKVKEASLSSLTAPTQAPMSNSPSKPSLPFQTSQSTGTEPFFKQKSLLLKQKQLNNSSVSSPQQNPWSNCKALPNSLPTEYPGCVPVCEGVSKLEESSKATPAEMDLAHNSQSMHASSASKSVLEVTQKATPNPSLLAAEDQVPCEKCGSLVPVWDMPEHMDYHFALELQKSFLQPHSSNPQVVSAVSHQGKRNPKSPLACTNKRPRPEGMQTLESFFKPLTH
Regarding B1, the Kd in the test with MSH2–MSH6 heterodimer was 6.5 ± 0.8 nM; with MSH2–MSH3 heterodimer, 7.4 ± 1 nM.

What is called Kd is the concentration at which binding is half-saturated.
